The target in this experiment is T1, MBP-tagged eIF2α (MBP-eIF2α) (human, UniProt P05198 1-315).
T1 construct: full-length human EIF2S1 cDNA in pMAL-c2x; source: Rosetta E. coli, purified (dextrin beads 6FF)
The experiment can be described thus: pull-down; 0.5 µg purified GST or GST-tagged proteins on glutathione magnetic beads, incubated with 0.5 µg purified MBP or MBP-eIF2α for 4 h at 4°C; six washes with 400 mM NaCl, 0.5% Triton X-100; western blot. Conditions: both partners purified. On the technique in general: Immunoblotting shows a protein as a band on a membrane.

T1 sequence (P05198 whole entry): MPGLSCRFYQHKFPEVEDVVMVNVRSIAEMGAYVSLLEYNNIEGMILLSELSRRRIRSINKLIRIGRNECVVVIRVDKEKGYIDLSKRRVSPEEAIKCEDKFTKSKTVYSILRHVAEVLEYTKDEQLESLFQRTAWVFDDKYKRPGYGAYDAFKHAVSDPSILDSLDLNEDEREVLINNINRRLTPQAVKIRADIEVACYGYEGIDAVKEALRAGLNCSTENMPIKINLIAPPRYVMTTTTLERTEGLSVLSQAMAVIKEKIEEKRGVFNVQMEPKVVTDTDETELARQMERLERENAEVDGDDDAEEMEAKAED

B1: GST-tagged C9orf72 short protein isoform (GST-C9S) (natural protein, human, UniProt Q96LT7-2 1-222, looked up)
chain: MSTLCPPPSPAVAKTEIALSGKSPLLAATFAYWDNILGPRVRHIWAPKTEQVLLSDGEITFLANHTLNGEILRNAESGAIDVKFFVLSEKGVIIVSLIFDGNWNGDRSTYGLSIILPQTELSFYLPLHRVCVDRLTHIIRKGRIWMHKERQENVQKIILEGTERMEDQGQSIIPMLTGEVIPVMELLSSMKSHSVPEEIDIADTVLNDDDIGDSCHEGFLLK
notes: human C9orf72 short protein isoform, 222 aa, encoded by exons 2-5; pGEX-6P-1 vector; source: Rosetta E. coli, purified (glutathione magnetic beads)
Take B1: the binding result was “binds”.

The values above are taken from article PMC9691347, “C9orf72 regulates the unfolded protein response and stress granule formation by interacting with eIF2α” (Theranostics, 2022).
